The values that follow are results of earlier work, collected in publication PMC8438204, “Unraveling the Thermodynamics of Ultra-tight Binding of Intrinsically Disordered Proteins” (Frontiers in Molecular Biosciences, 2021).

The target of the data set is prothymosin α (Homo sapiens) (UniProt P06454).
prothymosin α (Homo sapiens), sequence (P06454 2-111): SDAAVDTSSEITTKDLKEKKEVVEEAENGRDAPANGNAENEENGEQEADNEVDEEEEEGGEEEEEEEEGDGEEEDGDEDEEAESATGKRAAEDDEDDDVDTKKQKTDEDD

histone H1, sequence (P07305 2-194): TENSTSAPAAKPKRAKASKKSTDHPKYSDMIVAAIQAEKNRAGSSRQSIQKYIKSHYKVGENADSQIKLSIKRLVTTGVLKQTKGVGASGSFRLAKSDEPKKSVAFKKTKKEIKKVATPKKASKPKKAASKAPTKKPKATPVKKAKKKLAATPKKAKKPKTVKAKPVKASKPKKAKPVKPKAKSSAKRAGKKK

In the case of histone H1 (from UniProt P07305), the dissociation constant Kd was 2 pM.

The Kd is the equilibrium constant for the complex coming apart.
